From paper PMC7739268 (Journal of molecular biology, 2016)
Read-outs that look alike come from different tables or passages of the source.

B1: Recombinant human Activin B (ligand, UniProt P09529 293-407, looked up)
chain: GLECDGRTNLCCRQQFFIDFRLIGWNDWIIAPTGYYGNYCEGSCPAYLAGVPGSASSFHTAVVNQYRMRGLNPGTVNSCCIPTKLSTMSMLYFDDEYNIVKRDVPNMIVEECGCA
B2: Recombinant human BMP-6 (ligand, UniProt P22004 375-513, looked up)
chain: SASSRRRQQSRNRSTQSQDVARVSSASDYNSSELKTACRKHELYVSFQDLGWQDWIIAPKGYAANYCDGECSFPLNAHMNATNHAIVQTLVHLMNPEYVPKPCCAPTKLNAISVLYFDDNSNVILKKYRNMVVRACGCH
B6: BMPRII-Fc (Fc fusion, human, UniProt Q13873 27-136, looked up)
chain: SQNQERLCAFKDPYQQDLGIGESRISHENGTILCSKGSTCYGLWEKSKGDINLVKQGCWSHIGDPQECHYEECVVTTTPPSIQNGTYRFCCCSTDLCNVNFTENFPPPDT

What was measured:
[1] = target: short-form Cerberus Fc fusion protein (CerS-Fc) (human) (UniProt O95813); test: SPR
[2] = target: short-form Cerberus, Fc free (CerS) (human) (UniProt O95813); test: cross-linking
[3] = target: Recombinant human Activin B (human) (UniProt P09529); test: SPR
[4] = target: Recombinant human Activin B (human) (UniProt P09529); test: SPR; remark: listed apart in the source
[5] = target: T1, wild-type Cerberus Fc fusion protein (wtCer-Fc) (human, UniProt O95813 18-267); test: SPR
T1 sequence (looked up): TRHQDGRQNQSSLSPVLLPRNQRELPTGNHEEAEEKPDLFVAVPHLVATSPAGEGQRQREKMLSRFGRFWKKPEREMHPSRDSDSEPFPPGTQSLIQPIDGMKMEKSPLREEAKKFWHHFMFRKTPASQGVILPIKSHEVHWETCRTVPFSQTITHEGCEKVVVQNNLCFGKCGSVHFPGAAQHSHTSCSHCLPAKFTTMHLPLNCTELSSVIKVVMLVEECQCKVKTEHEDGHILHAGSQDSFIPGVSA

[6] = target: T2, mutant Cerberus Fc fusion protein (mutCer-Fc) (human, UniProt O95813 18-267, Arg82Gly | Cys206Ala); test: SPR
T2 sequence (looked up): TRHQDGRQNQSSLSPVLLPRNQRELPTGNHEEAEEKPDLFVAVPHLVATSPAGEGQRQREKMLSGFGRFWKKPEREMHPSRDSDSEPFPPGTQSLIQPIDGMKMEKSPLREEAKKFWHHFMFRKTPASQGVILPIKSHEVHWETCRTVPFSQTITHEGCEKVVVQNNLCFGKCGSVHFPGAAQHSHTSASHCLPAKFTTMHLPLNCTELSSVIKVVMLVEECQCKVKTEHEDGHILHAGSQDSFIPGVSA

Recombinant human BMP-6 [7] = target: B2; test: SPR
[8] = target: B1; test: SPR
Recombinant human BMP-6 [9] = target: B2; test: SPR; remark: listed apart in the source
[10] = target: B1; test: SPR; remark: listed apart in the source
SEC = target: the molecule itself; test: SEC
Recombinant human BMP-6 [11] = target: B2; test: SPR; remark: listed apart in the source
[12] = target: B1; test: SPR; remark: listed apart in the source
BMPRII-Fc = target: B6; test: SPR

“Recombinant human BMP-7 (from UniProt P18075 293-431) (ligand)” showed a Kd [1] of 15.6 nM, a koff [1] of 0.0021 s⁻¹ and a kon [1] of 140000 M⁻¹ s⁻¹.

With “short-form Cerberus, Fc free (CerS) (from UniProt O95813 18-267) (domain or fragment)” the stoichiometry N [2] was 2, the IC50 [3] was 28.4 nM and the IC50 [4] was 261 nM. The percent reduction of Activin B binding to ActRIIA at 50 nM [4] was 10%.

Work on “Recombinant human BMP-6 (from UniProt P22004 375-513) (ligand)” yielded a Kd [1] of 15.2 nM and a koff [1] of 0.0012 s⁻¹.

In the case of B1, the Kd [5] is reported as 0.096 ± 0.01 nM, the koff [5] is reported as 0.00022 s⁻¹ and the kon [5] is reported as 2.3e+06 M⁻¹ s⁻¹. For the same molecule, the Kd [6] was 0.016 ± 0.003 nM, the koff [6] was 3.1e-05 s⁻¹ and the kon [6] was 2e+06 M⁻¹ s⁻¹.

With B2 the Kd [5] was 19.1 ± 2.5 nM, the koff [5] was 0.0011 s⁻¹ and the kon [5] was 55000 M⁻¹ s⁻¹. The Kd [6] was 14.7 ± 3.6 nM, the koff [6] was 0.001 s⁻¹ and the kon [6] was 70000 M⁻¹ s⁻¹.

B3: Recombinant human BMP-7 (ligand, UniProt P18075 293-431, looked up)
chain: STGSKQRSQNRSKTPKNQEALRMANVAENSSSDQRQACKKHELYVSFRDLGWQDWIIAPEGYAAYYCEGECAFPLNSYMNATNHAIVQTLVHFINPETVPKPCCAPTQLNAISVLYFDDSSNVILKKYRNMVVRACGCH
Molecule B3 has a Kd [5] of 17.3 ± 0.8 nM, a koff [5] of 0.0028 s⁻¹ and a kon [5] of 160000 M⁻¹ s⁻¹. For the same molecule, the Kd [6] was 9.8 ± 0.9 nM, the koff [6] was 0.0012 s⁻¹ and the kon [6] was 130000 M⁻¹ s⁻¹.

B4: wild-type Cerberus, Fc free (wtCer) (natural protein, human, UniProt O95813 18-267, looked up)
chain: TRHQDGRQNQSSLSPVLLPRNQRELPTGNHEEAEEKPDLFVAVPHLVATSPAGEGQRQREKMLSRFGRFWKKPEREMHPSRDSDSEPFPPGTQSLIQPIDGMKMEKSPLREEAKKFWHHFMFRKTPASQGVILPIKSHEVHWETCRTVPFSQTITHEGCEKVVVQNNLCFGKCGSVHFPGAAQHSHTSCSHCLPAKFTTMHLPLNCTELSSVIKVVMLVEECQCKVKTEHEDGHILHAGSQDSFIPGVSA
B4 gave an IC50 (Recombinant human BMP-6 [7]) of 156 ± 9.2 nM, an IC50 [8] of 14.9 ± 4.2 nM and an IC50 (Recombinant human BMP-6 [9]) of 319 ± 53.4 nM. For the same molecule, the IC50 [10] was 26.2 ± 1.7 nM.

B5: mutant Cerberus, Fc free (mutCer) (natural protein, human, UniProt O95813 18-267, looked up)
chain: TRHQDGRQNQSSLSPVLLPRNQRELPTGNHEEAEEKPDLFVAVPHLVATSPAGEGQRQREKMLSGFGRFWKKPEREMHPSRDSDSEPFPPGTQSLIQPIDGMKMEKSPLREEAKKFWHHFMFRKTPASQGVILPIKSHEVHWETCRTVPFSQTITHEGCEKVVVQNNLCFGKCGSVHFPGAAQHSHTSASHCLPAKFTTMHLPLNCTELSSVIKVVMLVEECQCKVKTEHEDGHILHAGSQDSFIPGVSA
B5 was tested, and the “stoichiometry N” value (SEC) was 2, the IC50 (Recombinant human BMP-6 [7]) was 48.3 ± 3.5 nM and the IC50 [8] was 7.4 ± 1.1 nM. The IC50 (Recombinant human BMP-6 [9]) was 350 ± 96.1 nM and the IC50 [10] was 40.1 ± 2.5 nM.

B6: binds (Recombinant human BMP-6 [11]); binds [12].

B7: Recombinant human Nodal (ligand, UniProt Q96S42 238-347, looked up)
chain: HHLPDRSQLCRKVKFQVDFNLIGWGSWIIYPKQYNAYRCEGECPNPVGEEFHPTNHAYIQSLLKRYQPHRVPSTCCAPVKTKPLSMLYVDNGRVLLDHHKDMIVEECGCL
B7: binds (BMPRII-Fc).
